Reference: patent US20240002509A1

Target: human FcγR1A (human) (UniProt P12314)
Assay: SPR (Biacore T200), antibody amine-coupled on CM5 (~950 RU), receptor as analyte, 25 C

UniProt P12314, sequence (P12314 16-288 limits assumed): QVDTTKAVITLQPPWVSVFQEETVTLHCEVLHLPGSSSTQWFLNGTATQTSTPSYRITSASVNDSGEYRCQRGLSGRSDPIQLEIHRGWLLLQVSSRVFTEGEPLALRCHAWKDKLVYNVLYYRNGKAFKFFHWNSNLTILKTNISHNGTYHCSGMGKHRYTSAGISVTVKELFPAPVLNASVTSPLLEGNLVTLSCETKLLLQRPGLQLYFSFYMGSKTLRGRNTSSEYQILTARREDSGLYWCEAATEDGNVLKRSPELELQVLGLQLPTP

Row | Maximum response at 100 nM hFcgammaRIA (RU) | Substance
1 | 11 | DANAPA-IgG1 (D265A/N297A/P329A) anti-CD3 antibody
2 | 15 | LALAGA-IgG1 (L234A/L235A/G237A) anti-CD3 antibody
3 | 13 | DAPASK-IgG1 (D265A/P329A/S267K) anti-CD3 antibody
4 | 10 | GADAPASK-IgG1 (G237A/D265A/P329A/S267K) anti-CD3 antibody
5 | 16 | GADAPA-IgG1 (G237A/D265A/P329A) anti-CD3 antibody
6 | 18 | LALAPG-IgG1 (L234A/L235A/P329G) anti-CD3 antibody
7 | 9 | LALASKPA-IgG1 (L234A/L235A/S267K/P329A) anti-CD3 antibody
